For orientation: Kd means the constant that tells how readily two partners part at equilibrium. Read a low Kd as a tighter complex.

The test concerns the target T1, Human 14-3-3γ WT (human, UniProt P61981 1-247).
T1 chain: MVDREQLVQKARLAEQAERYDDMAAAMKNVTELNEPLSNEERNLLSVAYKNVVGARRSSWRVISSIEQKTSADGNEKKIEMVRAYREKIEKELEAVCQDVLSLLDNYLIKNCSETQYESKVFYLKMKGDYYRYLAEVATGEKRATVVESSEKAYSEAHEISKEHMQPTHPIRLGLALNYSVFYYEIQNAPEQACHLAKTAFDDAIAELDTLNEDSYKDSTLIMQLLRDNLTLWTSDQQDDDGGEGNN
Briefly: FP.

Non-standard residues stand in square brackets, D forms with d. No end group written: not given here. *: point of attachment. 5FAM = O=C1OC2(c3ccc(O)cc3Oc3cc(O)ccc32)c2ccc(C(=O)*)cc21; pS = N[C@@H](COP(=O)(O)O)C(=O)O

5FAM-RRRWKL[pS]FSIV [FAM-aidDAPK-pS318 peptide (FAM-RRRWKLpSFSIV)]: the dissociation constant Kd was 48 µM.
